Reference: the Human Domainome abundance scans (Beltran et al. 2025)
± gives the uncertainty stated by the source.

B1: Peripheral plasma membrane protein CASK, residues 488 to 569; numbered along this chain, O14936 (parent)
chain: VRLVQFQKNTDEPMGITLKMNELNHCIVARIMHGGMIHRQGTLHVGDEIREINGISVANQTVEQLQKMLREMRGSITFKIVP

Variants of: B1
Experiment: abundance fitness (aPCA) (normalised: wild type 0, dead -1); higher = more abundant; growth selection in yeast, the domain comes from the species named
Conditions: Homo sapiens

VRLVQFQKNTDEPMGITLKMNELNHCIVARIMHGGMIHRQGTLHVGDEIREINGISVANQTVEQLQKMLREMRGSLTFKIVP and VRLVQFQKNTDEPMGITLKMNELNHCIVARIMHGGMIHRQGTLHVGDEIREINGISVANQTVEQLQKMLREMRGSMTFKIVP are within error of each other in abundance fitness: -0.112 ± 0.028 for the first, -0.082 ± 0.049 for the second.

Going from VRLVQFQKNTDEPMGITLKMNELNHCIVARIMHGGMIHRQGTLHVGDEIREINGISVANQTVEQLQKMLREMRGSCTFKIVP to VRLVQFQKNTDEPMGITLKMNELNHCIVARIMHGGMIHRQGTLHVGDEIREINGISVANQTVEQLQKMLREMRGSHTFKIVP, the abundance fitness falls from -0.028 ± 0.039 to -0.544 ± 0.1.

Compared with VRLVQFQKNTDEPMGITLKMNELNHCIVARIMHGGMIHRQGTLHVGDEIREINGISVANQTVEQLQKMLREMRGSPTFKIVP, VRLVQFQKNTDEPMGITLKMNELNHCIVARIMHGGMIHRQGTLHVGDEIREINGISVANQTVEQLQKMLREMRGSNTFKIVP is higher in abundance fitness: -0.647 ± 0.094 for the first, -0.186 ± 0.051 for the second.

Going from VRLVQFQKNTDEPMGITLKMNELNHCIVARIMHGGMIHRQGTLHVGDEIREINGISVANQTVEQLQKMLREMRGSFTFKIVP to VRLVQFQKNTDEPMGITLKMNELNHCIVARIMHGGMIHRQGTLHVGDEIREINGISVANQTVEQLQKMLREMRGSATFKIVP, the abundance fitness falls from -0.173 ± 0.054 to -0.308 ± 0.033.

VRLVQFQKNTDEPMGITLKMNELNHCIVARIMHGGMIHRQGTLHVGDEIREINGISVANQTVEQLQKMLREMRGSKTFKIVP and VRLVQFQKNTDEPMGITLKMNELNHCIVARIMHGGMIHRQGTLHVGDEIREINGISVANQTVEQLQKMLREMRGSETFKIVP are within error of each other in abundance fitness: -1.11 ± 0.13 for the first, -1.04 ± 0.098 for the second.

Compared with VRLVQFQKNTDEPMGITLKMNELNHCIVARIMHGGMIHRQGTLHVGDEIREINGISVANQTVEQLQKMLREMRGSGTFKIVP, VRLVQFQKNTDEPMGITLKMNELNHCIVARIMHGGMIHRQGTLHVGDEIREINGISVANQTVEQLQKMLREMRGSDTFKIVP is lower in abundance fitness: -0.157 ± 0.023 for the first, -0.818 ± 0.1 for the second.

Compared with VRLVQFQKNTDEPMGITLKMNELNHCIVARIMHGGMIHRQGTLHVGDEIREINGISVANQTVEQLQKMLREMRTSITFKIVP, VRLVQFQKNTDEPMGITLKMNELNHCIVARIMHGGMIHRQGTLHVGDEIREINGISVANQTVEQLQKMLREMRYSITFKIVP is lower in abundance fitness: -0.4 ± 0.04 for the first, -0.521 ± 0.068 for the second.

First: VRLVQFQKNTDEPMGITLKMNELNHCIVARIMHGGMIHRQGTLHVGDEIREINGISVANQTVEQLQKMLREMRVSITFKIVP
Second: VRLVQFQKNTDEPMGITLKMNELNHCIVARIMHGGMIHRQGTLHVGDEIREINGISVANQTVEQLQKMLREMRGGITFKIVP
The abundance fitness of the first is lower: -0.716 ± 0.036 for the first, 0.001 ± 0.021 for the second.

VRLVQFQKNTDEPMGITLKMNELNHCIVARIMHGGMIHRQGTLHVGDEIREINGISVANQTVEQLQKMLREMRGKITFKIVP and VRLVQFQKNTDEPMGITLKMNELNHCIVARIMHGGMIHRQGTLHVGDEIREINGISVANQTVEQLQKMLREMRGPITFKIVP are within error of each other in abundance fitness: 0.005 ± 0.033 for the first, -0.005 ± 0.048 for the second.

VRLVQFQKNTDEPMGITLKMNELNHCIVARIMHGGMIHRQGTLHVGDEIREINGISVANQTVEQLQKMLREMRGIITFKIVP and VRLVQFQKNTDEPMGITLKMNELNHCIVARIMHGGMIHRQGTLHVGDEIREINGISVANQTVEQLQKMLREMRGWITFKIVP are within error of each other in abundance fitness: -0.116 ± 0.046 for the first, -0.04 ± 0.031 for the second.

VRLVQFQKNTDEPMGITLKMNELNHCIVARIMHGGMIHRQGTLHVGDEIREINGISVANQTVEQLQKMLREMRGRITFKIVP and VRLVQFQKNTDEPMGITLKMNELNHCIVARIMHGGMIHRQGTLHVGDEIREINGISVANQTVEQLQKMLREMRGNITFKIVP are within error of each other in abundance fitness: -0.011 ± 0.023 for the first, -0.023 ± 0.047 for the second.

VRLVQFQKNTDEPMGITLKMNELNHCIVARIMHGGMIHRQGTLHVGDEIREINGISVANQTVEQLQKMLREMRGCITFKIVP and VRLVQFQKNTDEPMGITLKMNELNHCIVARIMHGGMIHRQGTLHVGDEIREINGISVANQTVEQLQKMLREMRGLITFKIVP are within error of each other in abundance fitness: -0.011 ± 0.036 for the first, 0.034 ± 0.03 for the second.

VRLVQFQKNTDEPMGITLKMNELNHCIVARIMHGGMIHRQGTLHVGDEIREINGISVANQTVEQLQKMLREMRGMITFKIVP and VRLVQFQKNTDEPMGITLKMNELNHCIVARIMHGGMIHRQGTLHVGDEIREINGISVANQTVEQLQKMLREMRGEITFKIVP are within error of each other in abundance fitness: -0.081 ± 0.041 for the first, -0.029 ± 0.03 for the second.

Compared with VRLVQFQKNTDEPMGITLKMNELNHCIVARIMHGGMIHRQGTLHVGDEIREINGISVANQTVEQLQKMLREMRGHITFKIVP, VRLVQFQKNTDEPMGITLKMNELNHCIVARIMHGGMIHRQGTLHVGDEIREINGISVANQTVEQLQKMLREMRGAITFKIVP is higher in abundance fitness: -0.047 ± 0.053 for the first, 0.04 ± 0.027 for the second.

VRLVQFQKNTDEPMGITLKMNELNHCIVARIMHGGMIHRQGTLHVGDEIREINGISVANQTVEQLQKMLREMRGQITFKIVP and VRLVQFQKNTDEPMGITLKMNELNHCIVARIMHGGMIHRQGTLHVGDEIREINGISVANQTVEQLQKMLREMRGTITFKIVP are within error of each other in abundance fitness: 0.019 ± 0.034 for the first, 0.023 ± 0.033 for the second.

VRLVQFQKNTDEPMGITLKMNELNHCIVARIMHGGMIHRQGTLHVGDEIREINGISVANQTVEQLQKMLREMRGDITFKIVP and VRLVQFQKNTDEPMGITLKMNELNHCIVARIMHGGMIHRQGTLHVGDEIREINGISVANQTVEQLQKMLREMRGFITFKIVP are within error of each other in abundance fitness: 0.033 ± 0.037 for the first, -0.037 ± 0.043 for the second.

First: VRLVQFQKNTDEPMGITLKMNELNHCIVARIMHGGMIHRQGTLHVGDEIREINGISVANQTVEQLQKMLREMRGVITFKIVP
Second: VRLVQFQKNTDEPMGITLKMNELNHCIVARIMHGGMIHRQGTLHVGDEIREINGISVANQTVEQLQKMLREMRGYITFKIVP
The abundance fitness of the first is higher: 0.011 ± 0.025 for the first, -0.116 ± 0.048 for the second.
